Laboratory results from US20150368329A1 (ONCOMED PHARMACEUTICALS, published 2015).

How the values were obtained:
[1] = molecular target: recombinant mouse VEGF165 (mouse) (UniProt Q00731); assay: SPR (Biacore 2000); biotinylated VEGF165 on streptavidin chip, antibody injected 100-0.78 nM
[2] = molecular target: VEGF (ATGEN, South Korea) coated on ELISA plates (UniProt P15692-4 27-191, limits assumed); assay: bridging ELISA: the signal needs binding to both coated VEGF and biotin-DLL4-hFc (2 ug/ml); antibody concentration varied
Description: (§1) FIG. 5. Bispecific antibody ELISA. Bispecific antibodies 219R45-MB-21M18, 219R45-MB-21R79, 219R45-MB-21R75, and 219R45-MB-21R83 were diluted in blocking buffer (lx PBS, 0.1% gelatin, 0.1% Polysorbate-20, pH 7.4) containing 2 μg/ml biotin-DLL4-hFc. 219R45-MB-21M18 (open circles), 219R45-MB-21R79 (open squares), 219R45-MB-21R75 (open triangles), and 219R45-MB-21R83 (open diamonds) in comparison to a reference anti-VEGF/anti-DLL4 bispecific antibody (solid circles) is shown. The antibodies were serially diluted 3-fold from 500 ng/ml to 0.008 ng/ml. The antibody samples were incubated for 2 hours in blocking buffer containing the biotin-DLL4-hFc. After incubation, the antibody samples were transferred to a VEGF-coated assay plate (100 ul/well) and incubated for 2 hours. Streptavidin-HRP was added to each well and incubated for 1 hr. TMB substrate was added to the wells with a 10 minute color development and the reaction was stopped with 2M sulfuric acid. Absorbance was read at 450-650 nm and the data analyzed using the 4-parameter fit within the Softmax Pro analysis program.
(§2) VEGF (ATGEN, South Korea) was coated onto Nunc maxisorb plates at 2ug/ml (100 μl/well) and incubated overnight at 2-8° C. Bispecific antibodies 219R45-MB-21M18, 219R45-MB-21R79, 219R45-MB-21R75, and 219R45-MB-21RS3 were diluted in blocking buffer (1×PBS, 0.1% gelatin, 0.1% Polysorbate-20, pH 7.4) containing 2 μg/ml biotin-DLL4-hFc. The antibodies were serially diluted 3-fold from 500 ng/ml to 0.008 ng/ml. The antibody samples were incubated for 2 hours in blocking buffer containing the biotin-DLL4-hFc. After incubation, the antibody samples were transferred to the VEGF-coated assay plate (100 μl/well) and incubated for 2 hours. Streptavidin-HRP (Jackson ImmunoResearch, West Grove, Pa.) was added to each well and incubated for 1 hr. TMB substrate was added to the wells with a 10 minute color development and the reaction was stopped with 2M sulfuric acid. Absorbance was read at 450-650 nm and the data analyzed using the 4-parameter fit within the Softmax Pro analysis program (Molecular Devices, Sunnyvale, Calif.).

biotin-DLL4-hFc = molecular target: T1, biotin-DLL4-hFc (UniProt Q9NR61 27-522, limits assumed, biotinylated); assay: as above
T1 construct: not shown: human Fc ('hFc')
Description: as §1, §2

Sequence of VEGF (ATGEN, South Korea) coated on ELISA plates (P15692 other isoform, or with tags, fused parts or gaps limits assumed): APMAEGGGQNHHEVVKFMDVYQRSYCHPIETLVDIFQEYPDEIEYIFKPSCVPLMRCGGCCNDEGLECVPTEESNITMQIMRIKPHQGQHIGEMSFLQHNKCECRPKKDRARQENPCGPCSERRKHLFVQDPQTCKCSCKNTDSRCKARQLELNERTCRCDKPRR
T1 sequence (Q9NR61 27-522 limits assumed): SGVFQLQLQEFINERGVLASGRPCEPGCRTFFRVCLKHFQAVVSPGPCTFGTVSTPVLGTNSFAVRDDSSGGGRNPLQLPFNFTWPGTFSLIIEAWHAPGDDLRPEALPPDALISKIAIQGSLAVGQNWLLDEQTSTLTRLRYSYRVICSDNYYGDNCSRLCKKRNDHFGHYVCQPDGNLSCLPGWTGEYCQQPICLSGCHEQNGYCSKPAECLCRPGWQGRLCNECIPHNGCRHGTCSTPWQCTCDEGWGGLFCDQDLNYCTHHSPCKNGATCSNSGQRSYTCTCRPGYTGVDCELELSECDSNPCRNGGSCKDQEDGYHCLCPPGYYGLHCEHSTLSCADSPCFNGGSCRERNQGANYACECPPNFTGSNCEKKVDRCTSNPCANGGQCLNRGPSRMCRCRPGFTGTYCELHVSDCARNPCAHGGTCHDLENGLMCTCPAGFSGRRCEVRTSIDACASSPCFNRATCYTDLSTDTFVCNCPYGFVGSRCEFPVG

B1: anti-VEGF antibody 219R45 (parental, IgG format) (antibody, V domains shown)
VH: QVQLVQSGAEVKKPGASVKVSCKASGYTFTNYWMHWVRQAPGQGLEWMGDINPSNGRTSYKEKFKRRVTLSVDKSSSTAYMELSSLRSEDTAVYFCTIHYDDKYYPLMDYWGQGTLVTVSS
VL: DIVMTQSPDSLAVSLGERATISCRASESVDNYGISFMKWFQQKPGQPPKLLIYAASNQGSGVPDRFSGSGSGTDFTLTISSLQAEDVAVYYCQQSKEVPWTFGGGTKVEIKR
Binder B1 has a Kd [1] of 22.9 nM.

B2: anti-VEGF/anti-DLL4 bispecific antibody 219R45-MB-21M18 (bispecific antibody, human IgG2)
heavy 1: QVQLVQSGAEVKKPGASVKVSCKASGYTFTNYWMHWVRQAPGQGLEWMGDINPSNGRTSYKEKFKRRVTLSVDKSSSTAYMELSSLRSEDTAVYFCTIHYDDKYYPLMDYWGQGTLVTVSSASTKGPSVFPLAPCSRSTSESTAALGCLVKDYFPEPVTVSWNSGALTSGVHTFPAVLQSSGLYSLSSVVTVPSSNFGTQTYTCNVDHKPSNTKVDKTVERKCCVECPPCPAPPVAGPSVFLFPPKPKDTLMISRTPEVTCVVVDVSHEDPEVQFNWYVDGVEVHNAKTKPREEQFNSTFRVVSVLTVVHQDWLNGKEYKCKVSNKGLPAPIEKTISKTKGQPREPQVYTLPPSREKMTKNQVSLTCLVKGFYPSDIAVEWESNGQPENNYKTTPPMLKSDGSFFLYSKLTVDKSRWQQGNVFSCSVMHEALHNHYTQKSLSLSPGK
heavy 2: QVQLVQSGAEVKKPGASVKISCKASGYSFTAYYIHWVKQAPGQGLEWIGYISSYNGATNYNQKFKGRVTFTTDTSTSTAYMELRSLRSDDTAVYYCARDYDYDVGMDYWGQGTLVTVSSASTKGPSVFPLAPCSRSTSESTAALGCLVKDYFPEPVTVSWNSGALTSGVHTFPAVLQSSGLYSLSSVVTVPSSNFGTQTYTCNVDHKPSNTKVDKTVERKCCVECPPCPAPPVAGPSVFLFPPKPKDTLMISRTPEVTCVVVDVSHEDPEVQFNWYVDGVEVHNAKTKPREEQFNSTFRVVSVLTVVHQDWLNGKEYKCKVSNKGLPAPIEKTISKTKGQPREPQVYTLPPSREEMTKNQVSLTCLVEGFYPSDIAVEWESNGQPENNYKTTPPMLDSDGSFFLYSELTVDKSRWQQGNVFSCSVMHEALHNHYTQKSLSLSPGK
light: DIVMTQSPDSLAVSLGERATISCRASESVDNYGISFMKWFQQKPGQPPKLLIYAASNQGSGVPDRFSGSGSGTDFTLTISSLQAEDVAVYYCQQSKEVPWTFGGGTKVEIKRTVAAPSVIFPPSDEQLKSGTASVVCLLNNFYPREAKVQWKVDNALQSGNSQESVTEQDSKDSTYSLSSTLTLSKADYEKHKVYACEVTHQGLSSPVTKSFNRGEC
In the case of B2, the Kd [1] is reported as 25.5 nM, the “EC50 (read off the curve)” value [2] is reported as about 4 ng/mL and the “EC50 (read off the curve)” value (biotin-DLL4-hFc) is reported as about 4 ng/mL.

B3: anti-VEGF/anti-DLL4 bispecific antibody 219R45-MB-21R75 (bispecific antibody, human IgG2)
heavy 1: QVQLVQSGAEVKKPGASVKVSCKASGYTFTNYWMHWVRQAPGQGLEWMGDINPSNGRTSYKEKFKRRVTLSVDKSSSTAYMELSSLRSEDTAVYFCTIHYDDKYYPLMDYWGQGTLVTVSSASTKGPSVFPLAPCSRSTSESTAALGCLVKDYFPEPVTVSWNSGALTSGVHTFPAVLQSSGLYSLSSVVTVPSSNFGTQTYTCNVDHKPSNTKVDKTVERKCCVECPPCPAPPVAGPSVFLFPPKPKDTLMISRTPEVTCVVVDVSHEDPEVQFNWYVDGVEVHNAKTKPREEQFNSTFRVVSVLTVVHQDWLNGKEYKCKVSNKGLPAPIEKTISKTKGQPREPQVYTLPPSREKMTKNQVSLTCLVKGFYPSDIAVEWESNGQPENNYKTTPPMLKSDGSFFLYSKLTVDKSRWQQGNVFSCSVMHEALHNHYTQKSLSLSPGK
heavy 2: QVQLVQSGAEVKKPGASVKISCKASGYSFTAYYIHWVKQAPGQGLEWIGYIAGYKDATNYNQKFKGRVTFTTDTSTSTAYMELRSLRSDDTAVYYCARDYDYDVGMDYWGQGTLVTVSSASTKGPSVFPLAPCSRSTSESTAALGCLVKDYFPEPVTVSWNSGALTSGVHTFPAVLQSSGLYSLSSVVTVPSSNFGTQTYTCNVDHKPSNTKVDKTVERKCCVECPPCPAPPVAGPSVFLFPPKPKDTLMISRTPEVTCVVVDVSHEDPEVQFNWYVDGVEVHNAKTKPREEQFNSTFRVVSVLTVVHQDWLNGKEYKCKVSNKGLPAPIEKTISKTKGQPREPQVYTLPPSREEMTKNQVSLTCLVEGFYPSDIAVEWESNGQPENNYKTTPPMLDSDGSFFLYSELTVDKSRWQQGNVFSCSVMHEALHNHYTQKSLSLSPGK
light: DIVMTQSPDSLAVSLGERATISCRASESVDNYGISFMKWFQQKPGQPPKLLIYAASNQGSGVPDRFSGSGSGTDFTLTISSLQAEDVAVYYCQQSKEVPWTFGGGTKVEIKRTVAAPSVIFPPSDEQLKSGTASVVCLLNNFYPREAKVQWKVDNALQSGNSQESVTEQDSKDSTYSLSSTLTLSKADYEKHKVYACEVTHQGLSSPVTKSFNRGEC
notes: Monovalent/bispecific IgG2 heterodimer
B3 was tested, and the “EC50 (read off the curve)” value [2] was about 0.7 ng/mL and the “EC50 (read off the curve)” value (biotin-DLL4-hFc) was about 0.7 ng/mL.

B4: anti-VEGF/anti-DLL4 bispecific antibody 219R45-MB-21R79 (bispecific antibody, human IgG2)
heavy 1: QVQLVQSGAEVKKPGASVKVSCKASGYTFTNYWMHWVRQAPGQGLEWMGDINPSNGRTSYKEKFKRRVTLSVDKSSSTAYMELSSLRSEDTAVYFCTIHYDDKYYPLMDYWGQGTLVTVSSASTKGPSVFPLAPCSRSTSESTAALGCLVKDYFPEPVTVSWNSGALTSGVHTFPAVLQSSGLYSLSSVVTVPSSNFGTQTYTCNVDHKPSNTKVDKTVERKCCVECPPCPAPPVAGPSVFLFPPKPKDTLMISRTPEVTCVVVDVSHEDPEVQFNWYVDGVEVHNAKTKPREEQFNSTFRVVSVLTVVHQDWLNGKEYKCKVSNKGLPAPIEKTISKTKGQPREPQVYTLPPSREKMTKNQVSLTCLVKGFYPSDIAVEWESNGQPENNYKTTPPMLKSDGSFFLYSKLTVDKSRWQQGNVFSCSVMHEALHNHYTQKSLSLSPGK
heavy 2: QVQLVQSGAEVKKPGASVKISCKASGYSFTAYYIHWVKQAPGQGLEWIGYIANYNRATNYNQKFKGRVTFTTDTSTSTAYMELRSLRSDDTAVYYCARDYDYDVGMDYWGQGTLVTVSSASTKGPSVFPLAPCSRSTSESTAALGCLVKDYFPEPVTVSWNSGALTSGVHTFPAVLQSSGLYSLSSVVTVPSSNFGTQTYTCNVDHKPSNTKVDKTVERKCCVECPPCPAPPVAGPSVFLFPPKPKDTLMISRTPEVTCVVVDVSHEDPEVQFNWYVDGVEVHNAKTKPREEQFNSTFRVVSVLTVVHQDWLNGKEYKCKVSNKGLPAPIEKTISKTKGQPREPQVYTLPPSREEMTKNQVSLTCLVEGFYPSDIAVEWESNGQPENNYKTTPPMLDSDGSFFLYSELTVDKSRWQQGNVFSCSVMHEALHNHYTQKSLSLSPGK
light: DIVMTQSPDSLAVSLGERATISCRASESVDNYGISFMKWFQQKPGQPPKLLIYAASNQGSGVPDRFSGSGSGTDFTLTISSLQAEDVAVYYCQQSKEVPWTFGGGTKVEIKRTVAAPSVIFPPSDEQLKSGTASVVCLLNNFYPREAKVQWKVDNALQSGNSQESVTEQDSKDSTYSLSSTLTLSKADYEKHKVYACEVTHQGLSSPVTKSFNRGEC
Work on B4 yielded a Kd [1] of 12.5 nM.
